For series [1] the following is noted: cynomolgus monkey, in vivo. The procedure:
The pharmacokinetic profile of the constructs was analyzed in male cynomolgus monkeys of approximately 3 to 4 years old and was compared to the reference (SEQ ID NO:165). The constructs and the control were each injected in three monkeys at a dose of 2 mg/kg via an intravenous bolus injection. Blood samples were taken at predose, 5 min, 20 min, 1 h, 2 h, 4 h, 8 h (test day 1) after administration and at test days 2, 3, 5, 7, 9, 12, 15, 18, 21, 24, 27, 30, 33. In order to obtain at least 1 mL plasma per animal per sampling time, a sufficient volume of whole blood was withdrawn per sampling time. Plasma was collected after whole blood centrifugation for 30 minutes at 2200 g at room temperature (RT). The plasma samples were stored at −80° C. until analysis.
For bioanalytical determination of constructs and control article in monkey plasma, plasma samples were tested for levels of constructs and the control using ELISA based PK assays. The detection of control and constructs in the ELISA assays is based on the binding of these Nanobodies with vWF and the assay set-ups are as such that total vWF-binding Nanobody is detected.
For the reference (SEQ ID NO:165) and the construct of SEQ ID NO:167, 96-well microtiter plates (Maxisorp, Nunc, Wiesbaden, Germany) were coated overnight at 4° C. with neutravidin (Pierce) in 10:10 buffer at 3 μg/ml. Wells were aspirated and blocked for 1 hour at RT with PBS/1% casein. After this blocking step, wells were washed with PBS/0.05% Tween20. A biotinylated bivalent Nanobody against the constructs was added to the neutravidin coated plate at 2 μg/ml in PBS/0.1% casein and incubated for 1 hour at RT. After the incubation step of this capture tool, wells were washed 3 times with PBS/0.05% Tween20.
Preparations of the standards, QC samples and dilutions of the test samples were performed in a non-coated (polypropylene) plate. For the standard curve and QC-samples, solutions at the required concentrations were prepared in PBS/0.1% casein and spiked into 100% monkey plasma. To prepare standards and QC samples, a 1/100 dilution of the pure monkey plasma dilutions was made in IgM-Reducing Agent (Immunochemistry Technologies, Bloomington, USA) supplemented with 2.5% pooled human plasma (referred to as sample diluent). For the test samples, dilution factors for the test samples were estimated, and ranged between 1/100 to 1/9000 for the reference of SEQ ID NO:165 tests and between 1/100 and 12000 for the construct of SEQ ID NO: 167. Samples were diluted 1/100 in sample diluent in a first step, and if needed, further dilution was done in sample diluent supplemented with 1% cynomolgus plasma.
Standards, QC samples and diluted test samples were transferred onto the coated plate and incubated for 1 hour at RT. Afterwards the plates were washed followed by a complexation step with purified vWF (ZLB Behring). vWF diluted to 2.5 μg/ml for the assay for the reference of SEQ ID NO:165 and to 3 μg/ml for the assay for the construct of SEQ ID NO: 167 in PBS/0.1% casein was incubated on the plates for 30 minutes at RT. Plates were washed and Nanobody/vWF complexes bound to the capture tool detected with Rabbit anti-human vWF Ab (Dako, Denmark), diluted 1/2000 in PBS/0.1% casein and incubated for 30 minutes at RT. After washing, a 1/15000 dilution in PBS/0.1% casein of Horse-Radish-Peroxidase labelled goat anti-rabbit Ab (Dako, Denmark) was added to the plate and incubated for 30 minutes at RT. The enzyme coupled to the Ab catalyzes a chemical reaction with the substrate sTMB (3,3′,5,5′-tetramethylbenzidine, SDT reagents, Brussels, Belgium), resulting in a colorimetric change. After stopping this reaction after 10 minutes using HC1 (1N), the intensity of the colour was measured using a spectrophotometer at 450 nm. […]

Series [2] is described as follows: Chemical stability on storage at 37° C., RP-HPLC. It is filed as physicochemical. As to conditions: 4 weeks incubation at 37° C. in D-PBS. The method, then:
To evaluate the chemical stability of vWF0055, the Nanobody® vWF0055 was stored at 37° C. After 1, 2 and 4 weeks a sample was taken and analyzed for chemical or proteolytic modifications via RP-HPLC (Zorbax 300SB-C3, 4.6×150 mm (5 μm); trifluoroacetic acid/acetonitrile).

Another series deals with VWF. In words: Pharmacodynamic profile: ristocetin cofactor activity assay (% RICO) after i.v. administration. It is filed as in vivo, Cynomolgus monkey. The method, then:
For the constructs used in Example 14, pharmacodynamic characteristics upon compound administration were measured by means of a ristocetin cofactor activity assay (Biopool). The ristocetin cofactor activity is a functional assay for VWF, measuring the capacity of VWF to interact with the platelet receptor glycoprotein Ib using ristocetin as a modulator.
For pharmacodynamic data analysis, descriptive statistics (mean and SD) were calculated per dose group and per sampling time point using Microsoft Excel 2007. Response parameters and associated statistics for the overall time course were calculated by noncompartmental analysis of the response-time data using WinNonlin Pro 5.1 (Pharsight Corporation, USA; 2006). The non-compartmental analysis was based on a model for pharmacodynamic data (Model 220). The threshold value was set at 20% based on extensive historical PK/PD data on the vWF-0001 compound. Preclinical studies have shown that a complete inhibition of the pharmacodynamic marker are correlated with full antithrombotic efficacy. The following main pharmacodynamic parameters were determined: time below the threshold (Time below T), area under the threshold (AUC below T), time at which the % RICO first drops below the threshold (Tonset), and time at which the % RICO first returns back above the threshold (Toffset).

The test system of series [3] is platelet adhesion to fibrillar collagen. In words: Perfusion experiments: platelet adhesion to collagen at arterial shear rate. It is filed as cell-based, human. The procedure: The perfusion experiments were performed with a single-pass perfusion chamber under non-pulsatile flow conditions using a modified small perfusion chamber with a slit height of 0.1 mm and a slit width of 2 mm. […] Citrated human blood was preincubated at 37° C. for 5 min with or without addition of test compound, and then perfused through the chamber for 5 min at a wall shear rate of 1600 s^−1 using an infusion/withdrawal pump (pump 22, model 2400-004, Harvard Apparatus, Holliston, Mass.). After the perfusion run, the coverslips were rinsed in Hepes buffered saline (10 mM Hepes, 150 mM NaCl, pH 7.4) and platelets were fixed with 5% glutaraldehyde and stained with May-Grünwald and Giemsa. Platelet deposition of the coverslip was evaluated as platelet surface coverage of 10 randomly chosen pictures using light microscopy (Olympus BX61 microscope using Analysis Five digital imaging solutions analysis software).

A further series has as its target HSA (Homo sapiens, UniProt P02768). Put plainly: Biacore analysis of pH dependency of binding. The procedure:
(§1) The pH dependent binding of vWF0055 on HSA and cynoSA was investigated by surface plasmon resonance using a Biacore 3000 instrument by assessing the affinity at three different pH's. In brief, HSA and cynoSA were amine-coupled to a separate CM5 sensor chip at a density of respectively 1800RU and 1900RU. Diluted samples, ranging in concentration between 25 nM to 1 μM vW0055 were prepared in three buffers. The three buffers used contained 50 mM phosphate, 150 mM NaCl and 0.005% surfactant P and were adjusted to either pH5, pH7 or pH8. Samples were injected at a flow-rate of 45 μL/min, association and dissociation were monitored during 120 sec and 300 sec. Binding curves were subsequently used to calculate the KD, association- and dissociation-rate constants with the BiaEvaluation software.

Another series concerns the target cynoSA (Macaca fascicularis, UniProt A2V9Z4). Put plainly: Biacore analysis of pH dependency of binding. Set-up: species or system cynomolgus monkey. The method, then:
as §1

[4] abbreviates: threshold 20% RICO, i.v. bolus 2 mg/kg, male Cynomolgus monkey, mean n = 3.

Consider one molecule from patent US8217140B2, “Peptides capable of binding to serum proteins and compounds, constructs and polypeptides comprising the same” (Ablynx N.V., priority 2008, dated 2012).

Chain of cynoSA (A2V9Z4 25-608): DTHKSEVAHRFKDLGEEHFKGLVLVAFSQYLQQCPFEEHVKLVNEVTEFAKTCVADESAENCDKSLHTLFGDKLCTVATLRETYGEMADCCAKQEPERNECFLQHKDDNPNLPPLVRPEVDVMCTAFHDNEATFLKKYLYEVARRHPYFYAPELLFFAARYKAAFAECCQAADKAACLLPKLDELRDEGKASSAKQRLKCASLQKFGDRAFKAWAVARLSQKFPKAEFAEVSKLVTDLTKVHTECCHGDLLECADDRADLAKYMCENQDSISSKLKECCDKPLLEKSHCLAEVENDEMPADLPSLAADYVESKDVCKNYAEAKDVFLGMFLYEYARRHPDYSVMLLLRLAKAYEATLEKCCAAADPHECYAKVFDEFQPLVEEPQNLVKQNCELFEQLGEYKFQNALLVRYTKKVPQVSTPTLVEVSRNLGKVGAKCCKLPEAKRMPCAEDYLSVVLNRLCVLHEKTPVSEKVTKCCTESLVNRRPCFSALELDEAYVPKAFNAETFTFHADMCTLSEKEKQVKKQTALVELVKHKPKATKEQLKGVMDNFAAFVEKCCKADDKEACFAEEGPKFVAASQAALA

B1: 12A2_sv1-AAA-12A2_sv1-9GS-59C2 (protein)
chain: DVQLVESGGGLVQPGGSLRLSCAASGRTFSYNPMGWFRQAPGKGRELVAAISRTGGSTYYPESVEGRFTISRDNAKRTVYLQMNSLRAEDTAVYYCAAAGVRAEQGRVRTLPSEYTFWGQGTQVTVSSAAAEVQLVESGGGLVQPGGSLRLSCAASGRTFSYNPMGWFRQAPGKGRELVAAISRTGGSTYYPESVEGRFTISRDNAKRTVYLQMNSLRAEDTAVYYCAAAGVRAEQGRVRTLPSEYTFWGQGTQVTVSSGGGGSGGGSRDWDFDVFGGGTPVGG
In the case of B1, in series [1], the “Vdss lower relative to vWF0001” value is recorded as 11 fold, the “dominant half-life (t½ dominant) increase relative to vWF0001” value is 85 fold and the “mean CL decrease compared to the control” value turned out to be 26 fold. In series [1] (iv, 2 mg/kg), this molecule came in with an AUCinf of 1590 µg·h/mL and a C0 of 46500 ng/mL. Further, the “chemical modifications or proteolytic degradation” value in series [2] is recorded as “neither chemical modifications nor proteolytic degradation occurred”. The “Tonset values” in the series on VWF (estimated, i.v. application) is around 5 min. In the series with VWF (i.v. bolus), the “mean AUC under the threshold increase relative to vWF0001” value worked out at 118 fold and the “time below the threshold increase relative to vWF0001” value worked out at 105 fold. For the same molecule, in the series on VWF (setting [4]), the “AUC below T” value was determined as 781 % RICO * h and the “Time below T” value came to 127 h. In addition, the Tonset in the series on VWF (time % RICO first drops below threshold, i.v. bolus 2 mg/kg) stood at 0.074 h. In addition, the Toffset in the series with VWF (time % RICO first returns above threshold, i.v. bolus 2 mg/kg) worked out at 127 h. In series [3] (FIG. 12), the “Effective concentration compared to VWF0001” value was “similar”. Also, in series [3] (citrated human blood, wall shear rate 1600 s^−1, FIG. 12), the “inhibition of platelet adhesion to fibrillar collagen at arterial shear rate” value is “dose-dependently and completely inhibit”. In addition, the “decrease of affinity at pH5” value with HSA (pH5) is “about 10 fold”. The “pH at which the highest affinity was observed” value in the series with HSA (pH5, pH7 or pH8 tested) is 7. The “decrease of affinity at pH5” value with cynoSA (pH5) is “about 10 fold”. Moreover, the “pH at which the highest affinity was observed” value in the series with cynoSA (pH5, pH7 or pH8 tested) came to 7.
